The values below come from the Human Domainome abundance scans (Beltran et al. 2025).

B1: DnaJ homolog subfamily C member 5, residues 16 to 77; numbered along this chain, Q9H3Z4 (parent)
chain: LYHVLGLDKNATSDDIKKSYRKLALKYHPDKNPDNPEAADKFKEINNAHAILTDATKRNIYD

± gives the uncertainty stated by the source.

The variants in the data set derive from B1. The data set can be described thus: abundance fitness (aPCA) (normalised: wild type 0, dead -1); higher = more abundant; growth selection in yeast, the domain comes from the species named. The note with it: Homo sapiens.
Regarding LYHVLGLDKNATSDDIKKSYRKLALKYHPDKGPDNPEAADKFKEINNAHAILTDATKRNIYD [N32G], the abundance fitness is -0.434 ± 0.11.

LYHVLGLDKNATSDDIKKSYRKLALKYHPDKDPDNPEAADKFKEINNAHAILTDATKRNIYD [N32D]: the abundance fitness is -0.282 ± 0.15.

LYHVLGLDKNATSDDIKKSYRKLALKYHPDKTPDNPEAADKFKEINNAHAILTDATKRNIYD [N32T]: the abundance fitness is -0.251 ± 0.086.

For the variant LYHVLGLDKNATSDDIKKSYRKLALKYHPDKPPDNPEAADKFKEINNAHAILTDATKRNIYD [N32P], the abundance fitness was -0.691 ± 0.19.

With LYHVLGLDKNATSDDIKKSYRKLALKYHGDKNPDNPEAADKFKEINNAHAILTDATKRNIYD [P29G], the abundance fitness was -0.381 ± 0.064.

Regarding LYHVLGLDKNATSDDIKKSYRKLALKYHWDKNPDNPEAADKFKEINNAHAILTDATKRNIYD [P29W], the abundance fitness is -0.66 ± 0.077.

With LYHVLGLDKNATSDDIKKSYRKLALKYHFDKNPDNPEAADKFKEINNAHAILTDATKRNIYD [P29F], the abundance fitness was -0.542 ± 0.11.

For LYHVLGLDKNATSDDIKKSYRKLALKYHCDKNPDNPEAADKFKEINNAHAILTDATKRNIYD [P29C], the abundance fitness is -0.42 ± 0.11.

Consider LYHVLGLDKNATSDDIKKSYRKLALKYHTDKNPDNPEAADKFKEINNAHAILTDATKRNIYD [P29T], for which the abundance fitness is -0.292 ± 0.069.

For the variant LYHVLGLDKNATSDDIKKSYRKLALKYHSDKNPDNPEAADKFKEINNAHAILTDATKRNIYD [P29S], the abundance fitness is -0.159 ± 0.065.

For LYHVLGLDKNATSDDIKKSYRKLALKYHVDKNPDNPEAADKFKEINNAHAILTDATKRNIYD [P29V], the abundance fitness was -0.414 ± 0.062.

As to LYHVLGLDKNATSDDIKKSYRKLALKYHIDKNPDNPEAADKFKEINNAHAILTDATKRNIYD [P29I], the abundance fitness is -0.57 ± 0.095.

As for LYHVLGLDKNATSDDIKKSYRKLALKYHHDKNPDNPEAADKFKEINNAHAILTDATKRNIYD [P29H], the abundance fitness is -0.539 ± 0.11.

Regarding LYHVLGLDKNATSDDIKKSYRKLALKYHNDKNPDNPEAADKFKEINNAHAILTDATKRNIYD [P29N], the abundance fitness is -0.278 ± 0.067.

For LYHVLGLDKNATSDDIKKSYRKLALKYHDDKNPDNPEAADKFKEINNAHAILTDATKRNIYD [P29D], the abundance fitness is -0.111 ± 0.092.

In the case of LYHVLGLDKNATSDDIKKSYRKLALKYHRDKNPDNPEAADKFKEINNAHAILTDATKRNIYD [P29R], the abundance fitness was -0.422 ± 0.055.

Turning to LYHVLGLDKNATSDDIKKSYRKLALKYHYDKNPDNPEAADKFKEINNAHAILTDATKRNIYD [P29Y], the abundance fitness is -0.413 ± 0.097.

For the variant LYHVLGLDKNATSDDIKKSYRKLALKYHADKNPDNPEAADKFKEINNAHAILTDATKRNIYD [P29A], the abundance fitness is -0.053 ± 0.071.

Take LYHVLGLDKNATSDDIKKSYRKLALKYHLDKNPDNPEAADKFKEINNAHAILTDATKRNIYD [P29L]: the abundance fitness was -0.472 ± 0.066.

Consider LYHVLGLDKNATSDDIKKSYRKLALKYHMDKNPDNPEAADKFKEINNAHAILTDATKRNIYD [P29M], for which the abundance fitness was -0.386 ± 0.084.

As to LYHVLGLDKNATSDDIKKSYRKLALKYHQDKNPDNPEAADKFKEINNAHAILTDATKRNIYD [P29Q], the abundance fitness is -0.377 ± 0.072.

In the case of LYHVLGLDKNATSDDIKKSYRKLALKYHPDKNEDNPEAADKFKEINNAHAILTDATKRNIYD [P33E], the abundance fitness is -0.035 ± 0.085.

Turning to LYHVLGLDKNATSDDIKKSYRKLALKYHPDKNTDNPEAADKFKEINNAHAILTDATKRNIYD [P33T], the abundance fitness is -0.098 ± 0.076.

On to LYHVLGLDKNATSDDIKKSYRKLALKYHPDKNNDNPEAADKFKEINNAHAILTDATKRNIYD [P33N], for which the abundance fitness is -0.365 ± 0.22.

For LYHVLGLDKNATSDDIKKSYRKLALKYHPDKNFDNPEAADKFKEINNAHAILTDATKRNIYD [P33F], the abundance fitness is -0.351 ± 0.18.

Take LYHVLGLDKNATSDDIKKSYRKLALKYHPDKNGDNPEAADKFKEINNAHAILTDATKRNIYD [P33G]: the abundance fitness came out at 0.111 ± 0.052.

LYHVLGLDKNATSDDIKKSYRKLALKYHPDKNYDNPEAADKFKEINNAHAILTDATKRNIYD [P33Y]: the abundance fitness is -0.34 ± 0.09.

As to LYHVLGLDKNATSDDIKKSYRKLALKYHPDKNSDNPEAADKFKEINNAHAILTDATKRNIYD [P33S], the abundance fitness was -0.121 ± 0.085.

LYHVLGLDKNATSDDIKKSYRKLALKYHPDKNRDNPEAADKFKEINNAHAILTDATKRNIYD [P33R]: the abundance fitness was determined as 0.064 ± 0.053.

Turning to LYHVLGLDKNATSDDIKKSYRKLALKYHPDKNMDNPEAADKFKEINNAHAILTDATKRNIYD [P33M], the abundance fitness was -0.489 ± 0.1.

On to LYHVLGLDKNATSDDIKKSYRKLALKYHPDKNCDNPEAADKFKEINNAHAILTDATKRNIYD [P33C], for which the abundance fitness is -0.327 ± 0.11.

Regarding LYHVLGLDKNATSDDIKKSYRKLALKYHPDKNHDNPEAADKFKEINNAHAILTDATKRNIYD [P33H], the abundance fitness was -0.798 ± 0.28.

With LYHVLGLDKNATSDDIKKSYRKLALKYHPDKNKDNPEAADKFKEINNAHAILTDATKRNIYD [P33K], the abundance fitness turned out to be 0.209 ± 0.14.

For LYHVLGLDKNATSDDIKKSYRKLALKYHPDKNQDNPEAADKFKEINNAHAILTDATKRNIYD [P33Q], the abundance fitness was -0.063 ± 0.11.

Turning to LYHVLGLDKNATSDDIKKSYRKLALKYHPDKNLDNPEAADKFKEINNAHAILTDATKRNIYD [P33L], the abundance fitness is -0.507 ± 0.075.

As for LYHVLGLDKNATSDDIKKSYRKLALKYHPDKNDDNPEAADKFKEINNAHAILTDATKRNIYD [P33D], the abundance fitness is -0.16 ± 0.14.

Regarding LYHVLGLDKNATSDDIKKSYRKLALKYHPDKNVDNPEAADKFKEINNAHAILTDATKRNIYD [P33V], the abundance fitness was -0.225 ± 0.055.

For LYHVLGLDKNATSDDIKKSYRKLALKYHPDKNIDNPEAADKFKEINNAHAILTDATKRNIYD [P33I], the abundance fitness was -0.501 ± 0.16.

LYHVLGLDKNATSDDIKKSYRKLALKYHPDKNADNPEAADKFKEINNAHAILTDATKRNIYD [P33A]: the abundance fitness was -0.032 ± 0.09.

As to LYHVLGLDKNATSDDIKKSYRKLALKYHPDKNPANPEAADKFKEINNAHAILTDATKRNIYD [D34A], the abundance fitness is -0.145 ± 0.074.

For the variant LYHVLGLDKNATSDDIKKSYRKLALKYHPDKNPENPEAADKFKEINNAHAILTDATKRNIYD [D34E], the abundance fitness is -0.079 ± 0.085.

Take LYHVLGLDKNATSDDIKKSYRKLALKYHPDKNPFNPEAADKFKEINNAHAILTDATKRNIYD [D34F]: the abundance fitness is -1.01 ± 0.12.

Regarding LYHVLGLDKNATSDDIKKSYRKLALKYHPDKNPCNPEAADKFKEINNAHAILTDATKRNIYD [D34C], the abundance fitness is -0.783 ± 0.12.
